One data set has as its target T1, hORC1 BAH F89S (human, UniProt Q13415 45-171, F89S).
T1 sequence: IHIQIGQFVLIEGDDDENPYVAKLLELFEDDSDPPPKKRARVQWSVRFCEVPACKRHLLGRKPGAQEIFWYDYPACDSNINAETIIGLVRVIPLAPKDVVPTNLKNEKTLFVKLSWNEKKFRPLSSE
As to the kind of experiment: EMSA. (Mobility shift assays separate free from complexed probe on a gel.)

Another data set deals with T2, hORC1 BAH E127G (human, UniProt Q13415 45-171, E127G).
T2 sequence: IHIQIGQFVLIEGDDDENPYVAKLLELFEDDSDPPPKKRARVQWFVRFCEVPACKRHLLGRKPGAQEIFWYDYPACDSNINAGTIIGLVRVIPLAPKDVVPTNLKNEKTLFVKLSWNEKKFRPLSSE
As to the kind of experiment: EMSA.

B1: 14-bp DNA duplex (dsDNA)
DNA 1: GGAGGCCTCCTGCT
DNA 2: AGCAGGAGGCCTCC
As to B1, the binding result with hORC1 BAH F89S and with hORC1 BAH E127G was “binds” in each case.

(Values after PMC4654454 (ACS chemical biology, 2015).)
